Results as given in patent US20180222956A1.
Where two headings read alike, the source gives them in different places.

Columns and labels:
Assay in all cases: cell-based or functional assay
Human TGFβ3 (human) [1] = molecular target: Human TGFβ3 (human) (UniProt P10600)
Human TGFβ1 (human) [2] = molecular target: Human TGFβ1 (human) (UniProt P01137)
Human TGFβ3 (human) [3] = molecular target: Human TGFβ3 (human) (UniProt P10600); remark: listed apart in the source
Human TGFβ1 (human) [4] = molecular target: Human TGFβ1 (human) (UniProt P01137); remark: listed apart in the source

Chain of Human TGFβ1 (human) (P01137 279-390 limits assumed): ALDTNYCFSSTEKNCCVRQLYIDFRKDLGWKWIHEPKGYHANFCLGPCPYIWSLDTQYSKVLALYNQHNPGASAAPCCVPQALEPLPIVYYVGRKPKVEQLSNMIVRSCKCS
Chain of hTβRIIshort(23-159)-hG2Fc (Fc fusion) (chain): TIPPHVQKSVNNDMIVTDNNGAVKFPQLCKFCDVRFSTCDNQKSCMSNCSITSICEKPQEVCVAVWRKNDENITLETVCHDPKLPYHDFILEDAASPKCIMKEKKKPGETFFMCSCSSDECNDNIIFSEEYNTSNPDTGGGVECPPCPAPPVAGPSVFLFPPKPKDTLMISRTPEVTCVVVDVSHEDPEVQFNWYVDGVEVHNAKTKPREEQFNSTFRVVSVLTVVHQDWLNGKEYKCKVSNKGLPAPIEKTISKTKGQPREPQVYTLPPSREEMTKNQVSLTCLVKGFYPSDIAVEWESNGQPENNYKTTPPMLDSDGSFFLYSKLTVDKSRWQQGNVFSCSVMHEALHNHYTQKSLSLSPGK
Chain of Human TGFβ3 (human) (P10600 301-412 limits assumed): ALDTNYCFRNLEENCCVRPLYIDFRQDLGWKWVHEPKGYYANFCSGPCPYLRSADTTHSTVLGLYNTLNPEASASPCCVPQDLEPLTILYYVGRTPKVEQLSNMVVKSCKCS
Chain of hTβRIIshort(29-159)-hG2Fc (Fc fusion) (chain): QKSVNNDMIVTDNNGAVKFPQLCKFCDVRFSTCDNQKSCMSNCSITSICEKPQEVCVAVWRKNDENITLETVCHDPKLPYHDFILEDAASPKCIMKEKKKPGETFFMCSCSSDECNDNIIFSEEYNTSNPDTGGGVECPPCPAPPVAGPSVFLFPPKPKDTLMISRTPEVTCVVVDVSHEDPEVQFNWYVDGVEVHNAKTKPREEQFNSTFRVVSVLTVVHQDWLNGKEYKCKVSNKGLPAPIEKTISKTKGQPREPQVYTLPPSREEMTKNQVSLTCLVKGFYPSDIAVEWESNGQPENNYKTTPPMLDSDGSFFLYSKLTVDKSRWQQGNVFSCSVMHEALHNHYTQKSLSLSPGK
Chain of hTβRIIshort(23-153)-hG2Fc (Fc fusion) (chain): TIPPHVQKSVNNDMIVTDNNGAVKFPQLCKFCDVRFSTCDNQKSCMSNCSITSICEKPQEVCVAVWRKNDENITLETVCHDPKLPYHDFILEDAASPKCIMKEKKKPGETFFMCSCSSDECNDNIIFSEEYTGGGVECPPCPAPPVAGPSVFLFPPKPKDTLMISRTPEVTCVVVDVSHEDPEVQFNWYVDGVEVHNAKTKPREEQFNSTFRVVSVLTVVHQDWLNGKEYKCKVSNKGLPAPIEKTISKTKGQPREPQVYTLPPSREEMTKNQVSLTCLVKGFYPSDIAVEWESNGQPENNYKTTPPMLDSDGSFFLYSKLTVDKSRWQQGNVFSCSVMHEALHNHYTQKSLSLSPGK
Chain of hTβRIIshort(35-159)-hG2Fc (Fc fusion) (chain): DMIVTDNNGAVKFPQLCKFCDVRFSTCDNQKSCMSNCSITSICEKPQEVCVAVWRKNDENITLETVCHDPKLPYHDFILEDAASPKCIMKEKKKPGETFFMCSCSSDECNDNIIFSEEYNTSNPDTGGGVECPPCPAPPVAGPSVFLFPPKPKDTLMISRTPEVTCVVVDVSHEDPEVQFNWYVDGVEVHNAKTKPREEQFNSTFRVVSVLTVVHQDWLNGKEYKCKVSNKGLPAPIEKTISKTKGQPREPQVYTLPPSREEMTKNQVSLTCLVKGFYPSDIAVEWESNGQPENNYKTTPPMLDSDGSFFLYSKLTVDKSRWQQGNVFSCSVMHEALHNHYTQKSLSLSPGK

| Substance | IC50 (nM), A549 CAGA12 reporter gene assay, hTGFβ3 (270 pg/ml) (Human TGFβ3 (human) [1]) [nM] | IC50 (nM), A549 CAGA12 reporter gene assay, hTGFβ1 (640 pg/ml) (Human TGFβ1 (human) [2]) [nM] | IC50 (nM), A549 CAGA12 reporter gene assay, hTGFβ3 (270 pg/ml) (Human TGFβ3 (human) [3]) [nM] | IC50 (nM), A549 CAGA12 reporter gene assay, hTGFβ1 (640 pg/ml) (Human TGFβ1 (human) [4]) [nM] |
| --- | --- | --- | --- | --- |
| hTβRIIshort(23-153)-hG2Fc (Fc fusion) | 0.14 | 2.62 |  |  |
| hTβRIIshort(29-159)-hG2Fc (Fc fusion) |  |  | > 7.5 | 2.05 |
| hTβRIIshort(23-159/D110K)-hG2Fc (Fc fusion) |  | > 73.6 |  |  |

The next lines start with the values.

| IC50 (nM), A549 CAGA12 reporter gene assay, hTGFβ3 (270 pg/ml) (Human TGFβ3 (human) [1]) [nM] | IC50 (nM), A549 CAGA12 reporter gene assay, hTGFβ1 (640 pg/ml) (Human TGFβ1 (human) [2]) [nM] | IC50 (nM), A549 CAGA12 reporter gene assay, hTGFβ3 (270 pg/ml) (Human TGFβ3 (human) [3]) [nM] | IC50 (nM), A549 CAGA12 reporter gene assay, hTGFβ1 (640 pg/ml) (Human TGFβ1 (human) [4]) [nM] | Substance |
| --- | --- | --- | --- | --- |
| 0.14 | 1.73 | 0.37 | 0.52 | hTβRIIshort(23-159)-hG2Fc (Fc fusion) |
|  | 17.7 |  |  | hTβRIIshort(23-153/N70D)-hG2Fc (Fc fusion) |
|  |  | > 7.5 | 2.51 | hTβRIIshort(35-159)-hG2Fc (Fc fusion) |
